Test results taken from patent publication US8106020B2, “Calcium receptor activator” (Ajinomoto Co., Inc., priority 2005, dated 2012).
Starred links: 1 amine or outer side, 2 acyl side, 3 side chain; linkers in the order of their positions; H or OH if unused. Non-standard residues stand in square brackets, D forms with d. No end group written: not given here. Cys(S-allyl) = S-allylcysteine, C=CCSC[C@H](N[*:1])C(=O)[*:2]; Cys(S-Me) = S-methylcysteine, CSC[C@H](N[*:1])C(=O)[*:2]; γGlu = O=C(O)[C@H](CCC(=O)[*:2])N[*:1]; Tau = Taurine, O=S(=O)(CCN[*:1])[*:2]; Tle = CC(C)(C)[C@H](N)C(=O)O; Orn = NCCC[C@H](N)C(=O)O; Abu = CC[C@H](N)C(=O)O

Key:
human calcium receptor = molecular target: T1, human calcium receptor (Homo sapiens, UniProt P41180); experiment: Calcium receptor activation activity: Ca ion concentration-dependent Cl ionic current in Xenopus laevis oocyte expression system; type: cell-based; conditions: for Activity (lowest concentration for which current was detected): Ca ion concentration-dependent Cl response current, peptides added at 1000 to 0.1 μM, oocytes voltage-clamped at −70 mV
T1 construct: expressed in transfected cells; host or cells: Xenopus laevis oocytes microinjected with cRNA; gene amplified by PCR from human kidney cDNA (Clontech) and cloned in pBR322
T1 sequence (P41180 20-1078): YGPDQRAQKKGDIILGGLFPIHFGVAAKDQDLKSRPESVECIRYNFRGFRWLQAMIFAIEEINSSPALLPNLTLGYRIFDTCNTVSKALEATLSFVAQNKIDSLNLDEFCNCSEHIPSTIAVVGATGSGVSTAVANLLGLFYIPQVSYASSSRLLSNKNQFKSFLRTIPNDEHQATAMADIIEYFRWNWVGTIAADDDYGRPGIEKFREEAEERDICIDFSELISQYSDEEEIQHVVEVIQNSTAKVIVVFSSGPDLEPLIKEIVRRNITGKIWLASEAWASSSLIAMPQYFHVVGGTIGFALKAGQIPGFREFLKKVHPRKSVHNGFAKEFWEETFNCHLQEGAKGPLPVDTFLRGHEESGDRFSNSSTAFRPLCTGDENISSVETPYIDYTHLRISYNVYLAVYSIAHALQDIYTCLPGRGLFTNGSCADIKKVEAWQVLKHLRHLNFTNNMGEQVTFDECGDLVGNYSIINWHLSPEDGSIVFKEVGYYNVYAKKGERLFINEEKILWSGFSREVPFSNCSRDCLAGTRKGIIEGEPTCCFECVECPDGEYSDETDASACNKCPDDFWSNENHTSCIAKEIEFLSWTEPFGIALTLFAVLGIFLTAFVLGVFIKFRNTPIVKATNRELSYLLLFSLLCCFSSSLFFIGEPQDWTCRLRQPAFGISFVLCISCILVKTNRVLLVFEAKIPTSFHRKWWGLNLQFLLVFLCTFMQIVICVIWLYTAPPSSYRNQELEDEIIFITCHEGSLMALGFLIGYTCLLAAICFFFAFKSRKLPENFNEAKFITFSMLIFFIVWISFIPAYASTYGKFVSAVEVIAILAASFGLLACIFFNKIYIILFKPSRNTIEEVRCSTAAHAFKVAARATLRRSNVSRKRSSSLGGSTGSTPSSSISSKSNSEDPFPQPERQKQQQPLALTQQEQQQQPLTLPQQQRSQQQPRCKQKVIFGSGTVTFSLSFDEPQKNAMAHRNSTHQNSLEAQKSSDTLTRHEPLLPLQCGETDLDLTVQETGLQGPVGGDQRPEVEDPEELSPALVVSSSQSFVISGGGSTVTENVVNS
Procedure: To evaluate calcium receptor activation activity, a Ca ion concentration-dependent Cl ionic current measuring method using a Xenopus laevis oocyte expression system was used. If each activator is added to Xenopus laevis oocytes expressing the calcium receptor, intracellular Ca ions increase. Then, the Ca ion concentration-dependent Cl channel opens, and the intracellular current value changes as an ionic current. By measuring the change in this intracellular current value, the presence or absence of calcium receptor activation activity can be determined.
Specifically, the abdomen of Xenopus laevis was opened, and an egg batch was taken out and treated with a 1% collagenase solution at 20° C. for 2 hours to obtain individual oocytes. Into the oocytes, 50 nl of 1 μg/μl receptor cRNA or 50 nl of sterilized water per oocyte was introduced by using a micro glass capillary, and the oocytes were cultured at 18° C. for 2 or 3 days. For the culture, a solution obtained by adding 2 mM pyruvic acid, 10 U/ml of penicillin, and 10 μg/ml of streptomycin to the solution in Example 2 was used. After the culture, a test solution was added to the oocytes containing either the cRNA or sterilized water. Electrophysiological measurement was performed by using an amplifier, Geneclamp500 (Axon), and recording software, AxoScope 9.0 (Axon). The oocytes were voltage-clamped at −70 mV by the double electrode voltage clamp method, and the intracellular current was measured via the Ca ion concentration-dependent Cl ion channel. The maximum value of the intracellular current was considered as the response current value.
Calcium receptor activation activity of L-amino acids was evaluated by using the method described in Example 6. That is, oocytes containing either cRNA of the calcium receptor or sterilized water were prepared, and voltage-clamped at −70 mV by the double electrode voltage clamp method. To the voltage-clamped oocytes, alanine (10 mM), arginine (10 mM), asparagine (10 mM), aspartic acid (10 mM), cysteine (10 mM), glutamine (10 mM), glutamic acid (10 mM), glycine (10 mM), histidine (10 mM), isoleucine (10 mM), leucine (10 mM), lysine (10 mM), methionine (10 mM), phenylalanine (10 mM), proline (10 mM), serine (10 mM), threonine (10 mM), tryptophan (10 mM), tyrosine (10 mM), valine (10 mM), ornithine (10 mM), taurine (10 mM), or hydroxyproline (10 mM) was added, and Ca ion concentration-dependent Cl response current was measured. […] As for the aforementioned amino acids, the activation activity was reported in Proc. Natl. Acad. Sci. USA, 2000 Apr. 25, 97(9):4814-9.
Calcium receptor activation activity of D-cysteine was evaluated by using the method described in Example 6. That is, oocytes containing either cRNA of the calcium receptor or sterilized water were prepared, and voltage-clamped at −70 mV by the double electrode voltage clamp method. To the voltage-clamped oocytes, D-cysteine (10 mM), L-cysteine (10 mM), D-tryptophan (10 mM), or L-tryptophan (10 mM) was added, and Ca ion concentration-dependent Cl response current was measured.
Calcium receptor activation activity of peptides was evaluated by using the method described in Example 6. That is, oocytes containing either cRNA of the calcium receptor or sterilized water were prepared, and voltage-clamped at −70 mV by the double electrode voltage clamp method.
Calcium receptor activation activity of peptides was evaluated in the same manner as that of Example 10. Each of the peptides shown in Table 2 was added to voltage-clamped oocytes at 1000 μM, 300 μM, 100 μM, 30 μM, 10 μM, 3 μM, 1 μM, 0.3 μM, and 0.1 μM, and Ca ion concentration-dependent Cl response current was measured.

[1] = test system: Parathyroid hormone (PTH); experiment: Pharmacological evaluation in rats: serum PTH after intravenous injection; type: in vivo, rat; conditions: male Sprague-Dawley rats, 100 mg/ml in saline, 0.1 ml/100 g body weight, tail vein
Text: The pharmacological effects of the peptides were confirmed by animal study. Parathyroid hormone (PTH) is one of the major proteins which relate to calcium homeostasis. Increase in PTH is directly responsible for hyperparathyroidism and hypoparathyroidism. It is known that PTH is secreted from the parathyroid gland, and its secretion is inhibited when the calcium receptor is activated. Male, 10 weeks old, Sprague-Dawley strain rats were used. “Rat Intact PTH ELISA KIT” (Immutopics) was used for measuring PTH according to the manufacturer's recommended protocol. 100 mg/ml of γ-Glu-Val-Gly was dissolved in physiological saline, and 0.1 ml/100 g body weight for each was injected through the tail vein. Blood was collected from the vein under the right clavicle, and blood serum was obtained by centrifugation. Each group consists of 3 rats, and PTH variation is shown below as average value±standard error. The result for the peptide-administered group was: 148±72.5 pg/ml before the administration and 9.44±2.94 pg/ml 15 minutes after the administration; meanwhile, the result for the control group (physiological saline administered group) was: 89.4±49.5 pg/ml before the administration and 41.1±11.6 pg/ml 15 minutes after the administration. As a result, PTH levels decreased as a result of the administration of the peptides.

Row | Compound | Activity (lowest concentration for which current was detected) (human calcium receptor) [µM] | further results
1 | N[C@H](CS)C(=O)O [D-cysteine] |  | calcium receptor activation activity (Cl response current) (human calcium receptor; D-amino acid 10 mM, FIG. 3): definitive calcium receptor activation activity
2 | N[C@@H](CS)C(=O)O [cysteine, reference compound] |  | calcium receptor activation activity (Cl response current) (human calcium receptor; L-amino acid 10 mM, FIG. 2): definite calcium receptor activation activity
3 | N[C@@H](Cc1c[nH]cn1)C(=O)O [histidine, reference compound] |  | calcium receptor activation activity (Cl response current) (human calcium receptor; L-amino acid 10 mM, FIG. 2): definite calcium receptor activation activity
4 | N[C@@H](Cc1ccccc1)C(=O)O [phenylalanine, reference compound] |  | calcium receptor activation activity (Cl response current) (human calcium receptor; L-amino acid 10 mM, FIG. 2): definite calcium receptor activation activity
5 | N[C@@H](Cc1c[nH]c2ccccc12)C(=O)O [tryptophan, reference compound] |  | calcium receptor activation activity (Cl response current) (human calcium receptor; L-amino acid 10 mM, FIG. 2): definite calcium receptor activation activity
6 | N[C@@H](Cc1ccc(O)cc1)C(=O)O [tyrosine, reference compound] |  | calcium receptor activation activity (Cl response current) (human calcium receptor; L-amino acid 10 mM, FIG. 2): definite calcium receptor activation activity
7 | N[C@@H](CCC(=O)N[C@@H](CSN=O)C(=O)NCC(=O)O)C(=O)O [γ-Glu-Cys(SNO)-Gly] |  | calcium receptor activation activity (Cl response current) (human calcium receptor; peptide 50 μM, FIG. 4): definitive calcium receptor activation activity
8 | N[C@@H](CCC(=O)N[C@@H](CS)C(=O)NCC(=O)O)C(=O)O [γ-Glu-Cys-Gly] |  | calcium receptor activation activity (Cl response current) (human calcium receptor; peptide 50 μM, FIG. 4): definitive calcium receptor activation activity
9 | γ-Glu-Abu-Gly ([γGlu]-[Abu]-Gly) | 3 | 
10 | γ-Glu-Cys(S-Me)-Gly ([γGlu]-[Cys(S-Me)]-Gly) | 3 | 
11 | γ-Glu-Cys(S-allyl)-Gly ([γGlu]-[Cys(S-allyl)]-Gly) | 100 | 
12 | γ-Glu-Gly-Gly ([γGlu]-Gly-Gly) | 30 | 
13 | γ-Glu-Orn ([γGlu]-[Orn]) |  | calcium receptor activation activity (Cl response current) (human calcium receptor; peptide 500 μM, FIG. 4): definitive calcium receptor activation activity
14 | γ-Glu-Ser-Gly ([γGlu]-Ser-Gly) | 30 | 
15 | γ-Glu-Tau ([γGlu]-[Tau]) | 300 | 
16 | γ-Glu-Val-Arg ([γGlu]-Val-Arg) | 1000 | 
17 | γ-Glu-Val-Asn ([γGlu]-Val-Asn) | 30 | 

Row | Compound | Activity (lowest concentration for which current was detected) (human calcium receptor) [µM] | further results
18 | γ-Glu-Val-Asp | 1000 | 
19 | γ-Glu-Val-Cys ([γGlu]-Val-Cys) | 10 | 
20 | γ-Glu-Val-Gln ([γGlu]-Val-Gln) | 10 | 
21 | γ-Glu-Val-Glu ([γGlu]-Val-Glu) | 1000 | 
22 | γ-Glu-Val-Gly ([γGlu]-Val-Gly) | 0.1 | PTH in blood serum, average value±standard error ([1]; 15 minutes after the administration): 9.44 ± 2.94 pg/mL; PTH in blood serum, average value±standard error ([1]; before the administration): 148 ± 72.5 pg/mL
23 | γ-Glu-Val-His ([γGlu]-Val-His) | 100 | 
24 | γ-Glu-Val-Lys ([γGlu]-Val-Lys) | 1000 | 
25 | γ-Glu-Val-Met ([γGlu]-Val-Met) | 1000 | 
26 | γ-Glu-Val-Orn ([γGlu]-Val-[Orn]) | 100 | 
27 | γ-Glu-Val-Phe ([γGlu]-Val-Phe) | 30 | 
28 | γ-Glu-Val-Pro ([γGlu]-Val-Pro) | 30 | 
29 | γ-Glu-Val-Ser ([γGlu]-Val-Ser) | 30 | 
30 | γ-Glu-Val-Thr ([γGlu]-Val-Thr) | 1000 | 
31 | γ-Glu-Val-Val ([γGlu]-Val-Val) | 1000 | 
32 | γ-Glu-t-Leu ([γGlu]-[Tle]) | 100 | 
33 | γ-Glu-γ-Glu-Val ([γGlu]-[γGlu]-Val) | 1000 | 
